Reference: PMC6627055, “Enantioselective Hydrolysis of Styrene Oxide and Benzyl Glycidyl Ether by a Variant of Epoxide Hydrolase from Agromyces mediolanus” (Marine Drugs, 2019)

Experiments:
Assay in all cases: initial rate of epoxide hydrolysis, chiral HPLC
Assay type in all cases: biochemical, Agromyces mediolanus
Conditions in all cases: phosphate buffer 0.2 M, pH 8.0, 30 °C (general activity assay), enantiopure substrate
c1ccc(COC[C@@H]2CO2)cc1 = test system: T1, c1ccc(COC[C@@H]2CO2)cc1
T1 construct: synthetic gene, triple variant, C-terminal His6 (3' end of gene) in pET28a NcoI/XhoI, E. coli BL21(DE3), Ni-NTA purified, about 43 kDa
Excerpt: (§1) initial rate of epoxide hydrolysis, chiral HPLC on vEH-Am

c1ccc(COC[C@H]2CO2)cc1 = test system: T2, c1ccc(COC[C@H]2CO2)cc1
T2 construct: synthetic gene, triple variant, C-terminal His6 (3' end of gene) in pET28a NcoI/XhoI, E. coli BL21(DE3), Ni-NTA purified, about 43 kDa
Excerpt: as §1

c1ccc([C@@H]2CO2)cc1 = test system: T3, c1ccc([C@@H]2CO2)cc1
T3 construct: synthetic gene, triple variant, C-terminal His6 (3' end of gene) in pET28a NcoI/XhoI, E. coli BL21(DE3), Ni-NTA purified, about 43 kDa
Excerpt: as §1

c1ccc([C@H]2CO2)cc1 = test system: T4, c1ccc([C@H]2CO2)cc1
T4 construct: synthetic gene, triple variant, C-terminal His6 (3' end of gene) in pET28a NcoI/XhoI, E. coli BL21(DE3), Ni-NTA purified, about 43 kDa
Excerpt: as §1

vEH-Am (Agromyces mediolanus; N240D/S207V/W182F)
Km (c1ccc(COC[C@@H]2CO2)cc1): 36.5 mM
Km (c1ccc(COC[C@H]2CO2)cc1): 9.3 mM
Km (c1ccc([C@@H]2CO2)cc1): 5.2 mM
Km (c1ccc([C@H]2CO2)cc1): 0.9 mM
